Data taken from patent publication US20040265295A1 (WISCONSIN ALUMNI RESEARCH FOUNDATION, published 2004).

Molecular target: T1, talin (Homo sapiens (Human), UniProt Q9Y490 1-2541)
T1 construct: Endogenous talin of HEK293T (and other) cells, detected with anti-talin antibody; also called talin (endogenous, in cell lysates)
Assay: immunoprecipitation of talin from HEK293T cells overexpressing the kinase

T1 sequence (Q9Y490 other isoform, or with tags, fused parts or gaps limits assumed): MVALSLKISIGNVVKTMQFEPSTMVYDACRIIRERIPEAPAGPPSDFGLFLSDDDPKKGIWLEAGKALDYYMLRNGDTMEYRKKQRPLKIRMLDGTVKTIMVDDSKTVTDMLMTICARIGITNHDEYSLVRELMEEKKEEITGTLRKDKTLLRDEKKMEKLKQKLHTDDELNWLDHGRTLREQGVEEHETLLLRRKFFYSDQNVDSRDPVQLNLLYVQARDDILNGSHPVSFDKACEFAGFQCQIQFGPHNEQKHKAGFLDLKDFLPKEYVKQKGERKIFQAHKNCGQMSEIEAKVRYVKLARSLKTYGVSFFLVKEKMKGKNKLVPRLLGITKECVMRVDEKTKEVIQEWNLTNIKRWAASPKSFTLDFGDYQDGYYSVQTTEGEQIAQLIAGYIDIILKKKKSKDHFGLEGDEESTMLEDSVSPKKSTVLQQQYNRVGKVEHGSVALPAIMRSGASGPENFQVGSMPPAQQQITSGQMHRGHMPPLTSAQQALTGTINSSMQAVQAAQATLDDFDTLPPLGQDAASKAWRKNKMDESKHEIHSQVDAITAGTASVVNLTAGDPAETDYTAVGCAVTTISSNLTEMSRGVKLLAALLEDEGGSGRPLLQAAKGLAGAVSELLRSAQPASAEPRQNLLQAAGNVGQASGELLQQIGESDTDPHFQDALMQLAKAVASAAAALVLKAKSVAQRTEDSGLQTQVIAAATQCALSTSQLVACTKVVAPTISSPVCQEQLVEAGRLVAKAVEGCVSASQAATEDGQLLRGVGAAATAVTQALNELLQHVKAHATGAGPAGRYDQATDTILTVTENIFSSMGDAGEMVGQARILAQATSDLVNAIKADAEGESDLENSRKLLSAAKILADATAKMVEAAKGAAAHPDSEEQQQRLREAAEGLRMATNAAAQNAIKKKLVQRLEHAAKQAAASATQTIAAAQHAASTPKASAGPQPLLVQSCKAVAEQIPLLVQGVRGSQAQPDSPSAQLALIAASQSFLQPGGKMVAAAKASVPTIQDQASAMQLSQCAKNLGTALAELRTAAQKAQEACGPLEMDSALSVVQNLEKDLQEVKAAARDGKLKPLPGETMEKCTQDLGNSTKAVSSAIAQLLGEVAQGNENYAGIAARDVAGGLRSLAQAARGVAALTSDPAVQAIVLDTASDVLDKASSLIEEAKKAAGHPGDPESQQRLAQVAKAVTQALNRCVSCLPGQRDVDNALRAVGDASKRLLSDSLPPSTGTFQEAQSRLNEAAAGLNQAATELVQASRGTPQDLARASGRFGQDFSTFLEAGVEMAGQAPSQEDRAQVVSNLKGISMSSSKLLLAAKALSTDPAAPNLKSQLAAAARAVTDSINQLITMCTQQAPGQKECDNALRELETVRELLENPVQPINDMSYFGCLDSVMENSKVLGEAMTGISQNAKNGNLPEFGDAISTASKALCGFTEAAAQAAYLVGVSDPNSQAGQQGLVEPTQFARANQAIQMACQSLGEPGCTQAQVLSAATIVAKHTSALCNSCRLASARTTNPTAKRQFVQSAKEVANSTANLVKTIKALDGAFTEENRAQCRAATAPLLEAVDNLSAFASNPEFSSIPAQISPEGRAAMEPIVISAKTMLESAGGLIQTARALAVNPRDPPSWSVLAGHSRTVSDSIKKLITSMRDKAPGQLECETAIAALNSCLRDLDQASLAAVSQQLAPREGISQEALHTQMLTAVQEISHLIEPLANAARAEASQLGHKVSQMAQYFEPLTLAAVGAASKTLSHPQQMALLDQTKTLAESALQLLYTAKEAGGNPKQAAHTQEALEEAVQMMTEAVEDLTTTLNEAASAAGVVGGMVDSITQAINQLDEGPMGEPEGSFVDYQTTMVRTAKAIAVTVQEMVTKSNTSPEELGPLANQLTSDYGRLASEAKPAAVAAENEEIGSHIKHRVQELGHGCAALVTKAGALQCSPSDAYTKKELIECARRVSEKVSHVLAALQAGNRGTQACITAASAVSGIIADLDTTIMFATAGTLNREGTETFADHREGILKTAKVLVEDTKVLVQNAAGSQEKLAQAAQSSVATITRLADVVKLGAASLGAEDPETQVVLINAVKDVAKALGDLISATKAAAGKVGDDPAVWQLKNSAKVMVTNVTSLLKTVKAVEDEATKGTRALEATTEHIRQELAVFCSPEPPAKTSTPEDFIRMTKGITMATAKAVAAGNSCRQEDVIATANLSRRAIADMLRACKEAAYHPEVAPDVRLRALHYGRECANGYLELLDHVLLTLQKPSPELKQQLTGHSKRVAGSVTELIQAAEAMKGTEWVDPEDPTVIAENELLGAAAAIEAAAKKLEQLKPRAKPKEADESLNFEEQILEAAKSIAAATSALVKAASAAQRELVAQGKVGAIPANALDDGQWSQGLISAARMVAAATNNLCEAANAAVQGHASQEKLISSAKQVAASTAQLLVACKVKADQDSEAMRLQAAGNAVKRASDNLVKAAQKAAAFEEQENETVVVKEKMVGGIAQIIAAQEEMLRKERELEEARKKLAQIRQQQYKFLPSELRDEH

B1: Haemagglutinin (HA)-tagged PIPKIγ635 (enzyme, not shown: small tags and cut ends)
chain: MELEVPDEAESAEAGAVTAEAAWSAESGAAAGMTQKKAGLAEAPLVTGQPGPGHGKKLGHRGVDASGETTYKKTTSSTLKGAIQLGIGYTVGNLSSKPERDVLMQDFYVMESIFFPSEGSNFTPAHHFQDFRFKTYAPVAFRYFRELFGIRPDDYLYSLCNEPLIELSNPGASGSVFYVTSDDEFIIKTVMHKEAEFLQKLLPGYYMNLNQNPRTLLPKFYGLYCVQSGGKNIRVVVMNNVLPRVVKMHLKFDLKGSTYKRRASKKEKEKSLPTYKDLDFMQDMPEGLLLDSDTFGALVKTLQRDCLVLESFKIMDYSLLLGVHNIDQQERERQAEGAQSKADEKRPVAQKALYSTAMESIQGGAARGEAIETDDTMGGIPAVNGRGERLLLHIGIIDILQSYRFIKKLEHTWKALVHDGDTVSVHRPSFYAERFFKFMSSTVFRKSSSLKSSPSKKGRGALLAVKPLGPTAAFSASQIPSEREDVQYDLRGARSYPTLEDEGRPDLLPCTPPSFEEATTASIATTLSSTSLSIPERSPSDTSEQPRYRRRTQSSGQDGRPQEEPHAEDLQKITVQVEPVCGVGVVPKEEGAGVEVPPCGASAAASVEIDAASQASEPASQASDEEDAPSTDIYF
Does B1 bind?
Result: no binding
